Test: soluble on expression in E. coli; label from the status in PepcDB or PDB records

Soluble on expression in E. coli, not soluble:
MGSDKIHHHHHHMSQIIAIHSFRGGTGKSNIIANIGATMALKGQRVGIIDTDIQSPGIHIIFGLKEEKIRLTLNDYLWKRCDIQDTAYDVTDTLIAESGNTDKIRGSLYLIPSSIKAAEIARVLREGYDVVRLHDGFQEIIRSLKLDYLLIDTHPGLNEETLISIGIANTLLIILRPDNQDFQGTAVTVDVARKLKAARILLVLNKALASFNFTDLQQQLEQIYDVPVVGILPLAEDMVQLASKGLFCLRYPQHPITQTIQEITDQLAGLVVSHQ
MGSDKIHHHHHHMSQQEFDVLVIGAGISGAALFYELARYTNIKNIALIEKYNTAATLNSKGTSNSQTIHCGDIETNYTLEKARKVKRTADMIVKYGLMQNAQNNFMFSHQKMALAVGDIECDYMKKRYEEFKELYPYIKFFDKAKIKQIEPKVVLGEDCNQDRPENICAMGVESGEVFTTVDFGKMSINLIEQAQKQNKNTFVAFNQEIIHIEKKDDIFILKTSNHQEYHAKSVVVNAGAHSLYLAHKMNLGMDKSCWPVAGSFYLTKQKLLNGKVYMVQNPKLPFAALHGDPDLLADMNTRFGPTALVIPKLERYHGLKSVPEFFEALKLDKTVLKVTFNMFKDATIRNYIFYNYLFELPFVDKSLFVKDAKKIVPSLKASDIYYAKGFGGVRPQVIDKTKGELMLGEASITETPGIIFNMTPSPGATSCLGNAERDAKLVCNYLGMEFNEDKFSSELL
MGSDKIHHHHHHMSQSMVGKHAMWPKENDVIFSISGRAQAAEKAFGMDNVINATIGALMDDSGKLITMKTVYEEYKALDNCEIGAYAALEGQPDYLEAVKKVFFRDYLPEGHIRVLASPGGSGAIKLAVWNYTNEGDEVLTSDWFWSPYVSIAEEANRKVVNYQLFDENRRFNFESFKEKFVNIAEKQGRVFTIINTPAHNPTGYSVADDEWDKILDLSKEVAKDKDKKIIFFVDSAYIDFAGDDDVCRKFFKKFSNLPENVLVLVGFSMSKGFTAYGMRMGAIICISSSEDVAEEFHYSCVHSCRANWSNCNRSAMAVLSNIVNDPKKFKEYEDEKEIYKNMLTRRADVFVKEAERVGLEILPYIAGFFVSIPCDNPKEVCEELTKHNLFAVPLKMGLRFAVCAVSEDKCKKAPSIIKEALESLEVKINN
MGSDKIHHHHHHMSQTTLSTIPRLIGQVLSIYDVAPEAIFSAANIDITSDAQTRVPMENMATLWKLAVEATHNNELGLVAASLFQPVYLKSIGLAWLASENLEEGLKRYIASSQLINTEMQIELTERDGIDGEETLIQYQRRLTSSNTIKVHPCAIELGIGFFLKMFRLAAGKNIPATGVYFTFAIEENNKVYEEYFQCPVYGNQAVNGIAFSKALLTETLPTHDVELVEMNEVVINKHLDSMDNGETSSKVIKMINDLLPLGCPTEEVIAYKLHMSKRTLQRKLSVEKQSFLALLTSVRLMLAKEKLANKRVSVTEITYQLGYSSPSTFARAFKKHTQLSPLEYRNQVSSYSSCS
MGSDKIHHHHHHMSRAPDTWILTADCPSMLGTVDVVTRYLFEQRCYVTEHHSFDDRQSGRFFIRVEFRQPDDFDEAGFRAGLAERSEAFGMAFELTAPNHRPKVVIMVSKADHCLNDLLYRQRIGQLGMDVVAVVSNHPDLEPLAHWHKIPYYHFALDPKDKPGQERKVLQVIEETGAELVILARYMQVLSPELCRRLDGWAINIHHSLLPGFKGAKPYHQAYNKGVKMVGATAHYINNDLDEGPIIAQGVEVVDHSHYPEDLIAKGRDIECLTLARAVGYHIERRVFLNANRTVVL
MGSDKIHHHHHHMSREINAGGHHFLYGGISRGVHYWDNKDFSEQSLRLSFGHQNRSVTRSFGTVPFVGQNLLGGSRYNFAGGFNADFSRRLGERWRLTLNAGNMWKHYQEDRTAARYGSHMPLAGATLMYSAPKDRLLYGGADWPHDMTKEAEQASVRKGLRVGAVKTFDGGLGLRANLRYTRRTFDAPGTIVYRFPRKDHEYQANLSLRHDKISWKGFTPQLNFRYLKIGSNMKSFYTRKNTQIFMSVEKDFK
MGSDKIHHHHHHMSRSPFQTFVWRSEIFECQSTDIQRFYSLLAIETERLGLGSKILGQAGHHPLYLLQSPGQKAGLPNLLISAGFHGEESAGPWGLLHFLSQLDGELFKRVNLSVLPLVNPTGFAKGHRFNELGENPNRGFFIENGKAKPGADTSAEGRILLEHAHLLQVASRDGILTCHEDVLMTDTYVYTFEPSQAPGRFSHSLRDALGQYFPIAADGDVDNCPVRSGVIFNHFDTSFESFLVRSGARVGCCSETPGQQPLDQRILANAAAMNTFVNMLAPELS
MGSDKIHHHHHHMSSDIHLAFAHPSERSAATARPGALDRISLRDHIVEVEIGAFQQERGTTQRVCFNVVVEIAPLPADLDDDVDRILSYDKVTEAIAHELARERLALLETLAERVAERILWEPQAVRAFVRIEKLDRGPGKLGVEIVRSADQVSHEADEDVKPHPRLMFLSNAAIDSDNLTGWIDQMECRERPLILCVGAHDLALPQTGHKWTQRRIDLLAIEQNAWRLAARDSRCKVVETRTELDWAMKNGQICVWAPSKIVLDAVEGPSEPPSNAVALAAWFASTFEAEEMIVIGAELPENPGVPLRAHAEEQHTL
MGSDKIHHHHHHMSSHQPAPPARPTNKVFIIGLPRTGTTSVSVALLEMGLRVAHQAFTKQAVILADAISDAPCFSDYRQLHSLYPDAKFIYLDRPLDAWVPSMQMLLSRMLVHLDKERGRFHPLLKRSFGHTFGIYRVADPMDAEHLKTCYQVHKQQVFDYFHQDQGLAQQFLSLQLDDPQSLPRLANFIGLDAQVDSPQLAFPHLNRGRNVASWDEYKHELKISSNLAGPENRKYFNYKI
MGSDKIHHHHHHMSSLINDIHAEDVANYLNRNREFFHVFPNLLNELSIPHPKSGHEVSLLERQVFQLREQRDSLQVEVDTLKDIAGENGALLHKVYDLSYALLAAESEQEAVNVVYDVMHDVFTVEEVTIISWEVPKSSVHGVNQLGISQAWSQSLKETLQPGKPVCGLLEDSWQKGLFHTDKAMQSVCVIPLGQQRVWGALALGATTDRFSPELGTYFLKVMGQMVTARLQRLF
MGSDKIHHHHHHMSSNALYTDLSGYYDLMCSDINYQQQSASIHRLHQFLGNNGKQHLDLACGTGPHVRHFIDLGYQCSGLDINQPMLDMAMRRCPEAQFNLQDMTAFYLEERVDLITCFLYSIHYSACIERLKSCIASVHSALNDGGLFCFNTVDKHRIDNTASVKHFAEFDGSHFAFESGWHYSGQGEKQSLKLSIAKSRLPFTEVSASPLPVSDMKGLGSLEAGLHAAGLQEVGLQELHSIEQWQDQHAMVATSFTELQELLAPYFEVHVFEHDYERIVPWDLASGNALFVCVKI
MGSDKIHHHHHHMSSPSFNVEEHKKMLQSYFNGQGFQRWASIYGDDKLSTVRSTVRQGHAVMMDKAFEWLQKTGLPKGSKILDAGCGTGLFTIRLAKSGYRVKAADIAEQMVNKTREDAEKAGVAGNVEFEVNSIESVSGTFDAVVCFDVLIHYPAEGFAHAFSNLAGLTKGPIIFTYAPFNNILAFQHWIGGFFPKKERRTTIQMIKDKEMQRVLSELGLKIVSQQKISFGFYHTMLMHVARR
MGSDKIHHHHHHMSSTKIIATFNQSGGAAKTTITHNLGYHLAKKHRVLLVDMDPQASLTAFMGLGEVKLQTEQTIYGAIAEETPLYIWEKPIHGMHLVPTNIQLAGTEQKIFHDLTIDNRQRLKFVLSNVLDQYDYILIDCPPSLGILSIMSLVAASHVIIPVETQYKCYLGTNQLLETIARLKKGGHQKLQIACIIPTKYDNRNLQDTGILEEIKQQVEGRIHVTAPIPKSTAFPDATQAHLPLALHKKNHPAVSILEEITKYITQLSVTQGQSH
MGSDKIHHHHHHMSTFHPSHPTHNRLLAALPPIELDDLAPHLELVHLLPGDVLCKPGETLPYAYFPTSSVISIHCMLENGASSELTSVGREGMLGVSLFMGGEATQNWVSVQSAGYGYRLNAAFLLQEFNEGGMLQRLLLRYSQALITEAVQNVVCSRYHTAQQRLCRWLLSMLDRLGPQDLILTQESIASILGVRRESVTAIARKLLEAGTICYRRGHIMVIDQIGLQKETCECYKKVKKEFDQVFDEVKTCEKVRQNSINAANAL
MGSDKIHHHHHHMSTKHSKAAAEFLKNKKQAAWHDETLWLVRAKRDRLSKEVPEWEELRNMACATKLYSNSHLDELLVEFENNARANGAHVYWAKDADEYCNIVYNILNQHGVKHFIKSKSMLAEECELNPFLESKGIEVVESDLGERILQLMHLKPSHIVLPAIHIKREQVGELFEREMGTEKGNFDPTYLTHAARKNLRQKFIHAEAAMTGANFAVASTGEIVVCTNEGNADMGTSQPKLQIAAFGMEKIVPDRESLGVFTRLLARSATGQPITTYTSHYRKPREGGELHIIIVDNGRSKILADPKHIKTLNCIRCGACMNTCPVYRRSGGYSYTYFIPGPIGINLGMLKAPLHYYDNVSACSLCYSCSFVCPAKVDLAEQIYLWRQDLDKLGKADRMKKVMSGGMEFMMKRPSIFNMALKWAPLVNGVPRFLIYNGLNDWGKGREMPKFAKESFNEMWKKGKVK
MGSDKIHHHHHHMSTRIPTEESLDTQQKDFLKKLKDNHYVGQNIWIKGFPGSGKSVLLVYAIKYLLNNEATQNAKILLVVFTHSLIELCKAELAELNITNVKIVTMYEFLKTKRKYDYIFCDEVQDLTSRILIKMKDQTRYMLIVAGDSNQSIYSKDPQYQEAVVIPEKITQLIDSEDWGLLYVYRLTRSIITAIQKMIPSMNIFSAKRYMLKRDTQIRLCKAEFVDQEVEYIMREARKFVNRNQSCAILFPTKDKVLEFCDTVLQLEHKPVWEKWIDQYYEPYFKRLNDHLKENQVPIECVVNSYGSLLAAENDKRIVIMTYHGVKGLDFDNVFIPFANTDLYIPGDSNITQKLFMVAMSRSRNNLYITYTGMPLSYVSLFSSDSTICANISISNELHPNLSDDINIDF
MGSDKIHHHHHHMSTVHDEMGVMNTTVKFLHSSDLQIGMTRWFLSDEAQARFDDDRIRAIEKMGKIARKNQCEFIVLAGDVFEHNSLEQRTTGRALEALRSLKLPVYLLPGNHDPLTADSLFYRAKDIDGVTILSDTTVHGVAPGVEIIGAPLLHKMATSDLVAEALKDLEPTSNVRIAVGHGQAEARTTDHRADLIDLNTVEAKLADGTIDYLALGDTHSAQPVGTSGKVWFSGAPETTDFHDLDPDRVGGEVNSGKVLIVSASKGDVSVEEVEVGKWTFHALSKEITSGTDVEDFLDTLQAYPDKSRTVIKYGLRGTITLEQNRRLEEGIAGLEDVFASLKPRERTTDLVLEPGEEELANLDATGYAAEVLRELADSVVNGAAPEEDRDALNLLFRLSREV
MGSDKIHHHHHHMSVCARPERPWDERDRERFMHRNKVVSREDWFQAHKAHLAREKELTRLRERVAAERRELPWLKVRKDYVFETEQGPKKLAELFANRSQLIVYHFVFAPGSTHHCESCAFVADHMDGANRHLRHHDVSLVTISRAPLVELLPYKQRMGWTFDWVSSYASDFNFDMQVSFTDRQIASGEAVYNFETPVLTSKDLPGTTVFYKGETGDIFLTFMSRARGSEQFIGAYQYLDIAPKGRDETGPYGTFMDWVRLHDEYGNRSQRDDVCP
MGSDKIHHHHHHMSVTINDTSSASSTQGLSSTTAVEKNSSADLQNQFLTLLVAQLKNQDPTNPMSNDQLVSQLAQLNTVSGIEKLNTTLGSISGQINNNQSMQASTLIGHSVMIPGKDILVGKETSTPFGVELEKAAEVVTVTVNDATGKAVRTIELGTLSAGVHSFNWDSKLADGTVAPDGAYTFTVAASTGGAQQVVQPLSYAVVNSVVRGDSGALLDLGLRGKATLDDVRQIL

Source: the DeepSol protein solubility set
